Article PMC8282340

Key:
[1] = biological target: fluorescent NOXA peptide (human); assay: FP; settings: natural protein
[2] = biological target: fluorescent BID peptide (human); assay: FP; settings: natural protein
[3] = biological target: NOXA peptide fused to the C-terminal half of T7 RNAP; assay: luciferase assay; settings: parent: est. 1.0; read off a plot

human MCL-1 fused to the N-terminal half of T7 RNAP, sequence (Q07820 whole entry, the tested form may be a part): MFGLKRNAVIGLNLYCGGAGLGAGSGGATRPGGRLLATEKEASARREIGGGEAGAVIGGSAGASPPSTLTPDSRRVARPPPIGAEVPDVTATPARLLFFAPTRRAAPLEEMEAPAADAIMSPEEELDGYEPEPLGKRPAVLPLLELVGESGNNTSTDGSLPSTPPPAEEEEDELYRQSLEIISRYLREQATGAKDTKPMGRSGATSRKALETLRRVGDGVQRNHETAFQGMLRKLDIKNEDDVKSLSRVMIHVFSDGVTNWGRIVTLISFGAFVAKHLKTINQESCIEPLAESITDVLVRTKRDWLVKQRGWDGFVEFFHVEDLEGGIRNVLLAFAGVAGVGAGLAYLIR
fluorescent BID peptide (human), sequence (P55957 79-99): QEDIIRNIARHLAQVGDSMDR
fluorescent NOXA peptide (human), sequence (Q13794 19-43): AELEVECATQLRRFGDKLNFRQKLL

Row | Substance | Kd [1] [nM] | Kd [2] [nM] | ratio to parent [3]
1 | human MCL-1 fused to the N-terminal half of T7 RNAP | 9.79 | 14.7 | 
2 | human MCL-1 fused to the N-terminal half of T7 RNAP a167T; g202S |  |  | 1.1
3 | human MCL-1 fused to the N-terminal half of T7 RNAP g202N; d263A |  |  | 0.84
4 | human MCL-1 fused to the N-terminal half of T7 RNAP n200S; f258V |  |  | 3.8
5 | human MCL-1 fused to the N-terminal half of T7 RNAP v189G |  |  | 3.8
